# Source: patent publication US20140175018A1 (published 2014)
# Bridge positions count the residues as written; N and C are the ends. Square brackets hold non-standard residues; d marks the D form. Side chains are listed from the residue outwards. * marks the point of attachment. Biotin = O=C1N[C@H]2[C@H](CS[C@H]2CCCCC(=O)*)N1; pGlu = O=C1CC[C@@H](C(=O)O)N1; Nle = CCCC[C@H](N)C(=O)O; PEG = not defined here
# T1: chemokine (C-C motif) receptor 3 (CCR3) (human, UniProt P51677 1-355)
# T1 construct: whole, on cells; also called hCCR3
# T1 sequence (looked up): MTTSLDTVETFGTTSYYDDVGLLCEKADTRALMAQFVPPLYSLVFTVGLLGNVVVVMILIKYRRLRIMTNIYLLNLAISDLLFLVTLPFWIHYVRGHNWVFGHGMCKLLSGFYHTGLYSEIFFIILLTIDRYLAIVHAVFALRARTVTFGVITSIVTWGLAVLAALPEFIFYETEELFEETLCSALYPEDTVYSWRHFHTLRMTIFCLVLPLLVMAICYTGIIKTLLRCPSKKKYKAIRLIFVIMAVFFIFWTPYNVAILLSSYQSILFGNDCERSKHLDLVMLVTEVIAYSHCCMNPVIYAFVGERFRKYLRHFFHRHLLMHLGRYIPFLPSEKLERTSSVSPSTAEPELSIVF
# T2: hCCR2b (human, UniProt P41597 1-374)
# T2 chain: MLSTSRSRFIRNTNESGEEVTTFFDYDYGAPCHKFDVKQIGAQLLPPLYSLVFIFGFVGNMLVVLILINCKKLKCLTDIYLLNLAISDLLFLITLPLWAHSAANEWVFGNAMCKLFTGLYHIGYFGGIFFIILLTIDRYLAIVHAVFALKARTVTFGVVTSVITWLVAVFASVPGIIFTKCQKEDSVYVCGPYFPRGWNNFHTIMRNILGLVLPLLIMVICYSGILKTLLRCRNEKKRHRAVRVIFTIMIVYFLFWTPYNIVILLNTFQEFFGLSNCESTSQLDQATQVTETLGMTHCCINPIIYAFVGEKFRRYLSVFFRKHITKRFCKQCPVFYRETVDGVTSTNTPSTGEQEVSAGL
# T3: chemokine (C-C motif) receptor 4 (CCR4) (human, UniProt P51679 1-360)
# T3 sequence (looked up): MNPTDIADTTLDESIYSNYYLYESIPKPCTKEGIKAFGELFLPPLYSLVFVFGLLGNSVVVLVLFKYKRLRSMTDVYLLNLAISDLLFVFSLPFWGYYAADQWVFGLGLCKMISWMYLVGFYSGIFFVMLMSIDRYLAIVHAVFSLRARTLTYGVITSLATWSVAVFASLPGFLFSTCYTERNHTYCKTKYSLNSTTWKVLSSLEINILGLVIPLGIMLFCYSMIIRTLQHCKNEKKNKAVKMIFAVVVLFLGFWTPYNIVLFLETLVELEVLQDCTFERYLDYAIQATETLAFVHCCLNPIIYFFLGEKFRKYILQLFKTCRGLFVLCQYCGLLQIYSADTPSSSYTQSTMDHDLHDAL
# T4: chemokine (C-C motif) receptor 1 (CCR1) (human, UniProt P32246 1-355)
# T4 construct: whole, on cells
# T4 sequence (looked up): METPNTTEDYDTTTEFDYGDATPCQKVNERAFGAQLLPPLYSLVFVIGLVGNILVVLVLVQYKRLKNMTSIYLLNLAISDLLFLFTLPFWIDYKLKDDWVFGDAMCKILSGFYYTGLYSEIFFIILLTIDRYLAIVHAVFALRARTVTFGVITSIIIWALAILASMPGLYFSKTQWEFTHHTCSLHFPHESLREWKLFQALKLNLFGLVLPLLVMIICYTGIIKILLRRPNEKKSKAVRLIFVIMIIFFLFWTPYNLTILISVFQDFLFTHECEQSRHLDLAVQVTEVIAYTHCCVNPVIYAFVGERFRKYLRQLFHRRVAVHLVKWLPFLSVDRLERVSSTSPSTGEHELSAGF
# T5: chemokine (C-C motif) receptor 9 (CCR9) (human, UniProt P51686 1-369)
# T5 construct: whole, on cells; also called hCCR9; TECK receptor
# T5 sequence (looked up): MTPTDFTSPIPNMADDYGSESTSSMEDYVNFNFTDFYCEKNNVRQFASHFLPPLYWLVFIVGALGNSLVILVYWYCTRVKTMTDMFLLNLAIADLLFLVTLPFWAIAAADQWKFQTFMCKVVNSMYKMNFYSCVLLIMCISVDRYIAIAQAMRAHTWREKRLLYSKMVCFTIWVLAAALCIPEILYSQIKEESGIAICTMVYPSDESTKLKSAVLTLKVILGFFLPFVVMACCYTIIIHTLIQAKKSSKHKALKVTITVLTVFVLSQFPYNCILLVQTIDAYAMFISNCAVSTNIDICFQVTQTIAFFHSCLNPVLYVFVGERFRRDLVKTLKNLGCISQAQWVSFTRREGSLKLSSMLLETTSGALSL
# T6: chemokine (C-C motif) receptor 7 (CCR7) (human, UniProt P32248 25-378)
# T6 sequence (looked up): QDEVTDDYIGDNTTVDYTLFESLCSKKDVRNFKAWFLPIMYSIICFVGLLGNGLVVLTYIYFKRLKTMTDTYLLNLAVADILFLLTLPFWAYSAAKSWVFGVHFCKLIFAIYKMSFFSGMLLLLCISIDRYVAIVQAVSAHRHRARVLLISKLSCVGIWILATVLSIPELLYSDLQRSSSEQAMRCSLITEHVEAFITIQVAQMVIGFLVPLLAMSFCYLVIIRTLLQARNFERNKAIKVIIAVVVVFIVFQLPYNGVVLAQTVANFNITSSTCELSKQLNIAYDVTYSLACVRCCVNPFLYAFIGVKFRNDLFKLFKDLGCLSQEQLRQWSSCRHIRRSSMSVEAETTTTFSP
# B1: biotinylated and Alexa647 Fluor labeled eotaxin (Almac Sciences) (ligand)
# chain: not shown
# modifications: biotinylated and Alexa647 Fluor labeled (sites not given)
# B2: recombinant native MCP-2 (ligand, UniProt P80075 24-99, looked up)
# chain: QPDSVSIPITCCFNVINRKIPIQRLESYTRITNIQCPKEAVIFKTKRGKEVCADPKERWVRDSMKHLDQIFQNLKP
# B3: biotinMDC (CCL22): MDC derivatised at Lys(66) with PEG-Biotin (ligand)
# chain: GPYGANMEDSVCCRDYVRYRLPLRVVKHFYWTSDSCPRPGVVLLTFRDKEICADPRVPWVKMILNK([PEG-Biotin])LSQ-NH2
# modifications: disulfide 12-36, 13-52; reading uncertain
# B4: biotinRANTES (CCL5): RANTES derivatised at Lys(67) with Biotin (ligand)
# chain: SPYSSDTTPCCFAYIARPLPRAHIKEYFYTSGKCSNPAVVFVTRKNRQVCANPEKKWVREYINSLEK(Biotin)S-OH
# modifications: disulfide 10-34, 11-50
# notes: also called bRANTES; biotinylated RANTES
# B5: Biotinylated CCL25 (Almac Sciences) (ligand, UniProt O15444 24-97, looked up)
# chain: QGVFEDCCLAYHYPIGWAVLRRAWTYRIQEVSGSCNLPAAIFYLPKRHRKVCGNPKSREVQRAMKLLDARNKVF
# modifications: biotinylated (site not stated); for the flow cytometry tests also Alexa647 Fluor labeled
# notes: also called biotinylated and Alexa647 Fluor labeled CCL25; CCL25-coated sepharose beads
# B6: biotinMIP-3b (CCL19): MIP-3b derivatised at Lys(78) with Biotin (ligand)
# chain: GTNDAEDCCLSVTQKPIPGYIVRNFHYLLIKDGCRVPAVVFTTLRGRQLCAPPDQPWVERIIQRLQRTSAKMKRRSSX
# modifications: X78 = K(Biotin), an additional C-terminal lysine; C-terminal amide
# B7: biotinTECK (Met to Nleu substitution): TECK derivatised at the epsilon-amino side chain of Lys72 with PEG-Biotin (ligand)
# chain: [pGlu]GVFEDCCLAYHYPIGWAVLRRAWTYRIQEVSGSCNLPAAIFYLPKRHRKVCGNPKSREVQRA[Nle]KLLDARNK([PEG-Biotin])VF-OH
# modifications: disulfide 7-35, 8-52; reading uncertain
# Tests used:
# [1] = molecular target: T1, chemokine (C-C motif) receptor 3 (CCR3); experiment: flow cytometry; eotaxin binding compared with anti-CCR3 staining of neutrophils/eosinophils
# [2] = molecular target: T2, hCCR2b; experiment: cell-based or functional assay
# [3] = molecular target: T3, chemokine (C-C motif) receptor 4 (CCR4); experiment: cell-based or functional assay
# [4] = molecular target: T7, chemokine (C-C motif) receptor 5 (CCR5) (human, UniProt P51681 1-352); experiment: cell-based or functional assay
# [5] = molecular target: T7, chemokine (C-C motif) receptor 5 (CCR5); experiment: blood passed through chemokine-coupled column; flow cytometry before and after
# [6] = molecular target: T4, chemokine (C-C motif) receptor 1 (CCR1); experiment: as above
# [7] = molecular target: T5, chemokine (C-C motif) receptor 9 (CCR9); experiment: flow cytometry; labelled chemokine on fixed blood leukocytes
# [8] = molecular target: T6, chemokine (C-C motif) receptor 7 (CCR7); experiment: cell-based or functional assay
# [9] = molecular target: T5, chemokine (C-C motif) receptor 9 (CCR9); experiment: cell-based or functional assay
# T7 sequence (P51681 whole entry): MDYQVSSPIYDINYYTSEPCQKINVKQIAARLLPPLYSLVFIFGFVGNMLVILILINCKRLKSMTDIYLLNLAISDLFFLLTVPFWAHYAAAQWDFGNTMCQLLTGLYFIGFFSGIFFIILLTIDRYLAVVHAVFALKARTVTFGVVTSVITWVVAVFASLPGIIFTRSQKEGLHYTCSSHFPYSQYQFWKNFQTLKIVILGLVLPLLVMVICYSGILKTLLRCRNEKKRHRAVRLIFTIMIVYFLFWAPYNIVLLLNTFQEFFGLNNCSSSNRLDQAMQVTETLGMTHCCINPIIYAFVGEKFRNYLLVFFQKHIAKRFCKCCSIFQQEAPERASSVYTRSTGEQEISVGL
binder,measurement,setting,value
B1,binding result,[1],binds
B2,"EC50 (partial agonist, Aequorin assay)",[2],23.5 nM
B3,"EC50 (agonist activity, Aequorin assay)",[3],4.5 nM
B4,"EC50 (agonist activity, Aequorin assay)",[4],0.5 nM
same,"percent reduction of chemokine receptor-expressing cells (CCR1, 3 or 5, not told apart)",[5],~20%
same,"percent reduction of chemokine receptor-expressing cells (CCR1, 3 or 5, not told apart)",[6],~20%
B5,percent of CD4+ lymphocytes bound (Crohn's patient),[7],~90%
same,percent of CD8+ lymphocytes bound (Crohn's patient),[7],~80%
same,percent of monocytes bound (Crohn's patient),[7],~90%
B6,"EC50 (agonist activity, Aequorin assay)",[8],11 nM
B7,"EC50 (agonist activity, Aequorin assay)",[9],63.6 nM
